The record followed here is the RNAGym collection of RNA variant scans (doi:10.1073/pnas.2313332121).

The chains are these.
B1: TPR t1 (parent)
chain: GACCAAUCUGCCCUCAGAGCUCGAGAACAUCUUCGGAUGCAGAGGAGGCAGGCUUCGGUGGCGCGAUAGCGCCAACGUCCUCAACCUCCAAUGCAUCCCACCACAUGAUGAUGCCUGAAGAGCCUUGGUUUUUUG

Variants of B1 are the subject of this data set. Nature of the data set: polymerase ribozyme fitness, log enrichment relative to wild type (log ratio); higher = more active; in vitro selection for triplet polymerase activity. In a few lines:
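Only genotypes with ≥10 input reads and ≥1 read per output were kept after Illumina sequencing of input and output libraries. These libraries were PCR-built, transcribed mutants of each subunit of a heterodimeric triplet polymerase ribozyme, each put through one triplicate in vitro selection round with frozen incubation at −7 °C, gel excision of extended constructs, streptavidin-bead capture and RT-PCR. Fitness is a logarithmic ratio of genotype enrichment to wild-type enrichment, from inverse-variance-weighted replicate averages, with the logarithm in base 2.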
Take U9C C53A C123G: the “polymerase ribozyme fitness (log ratio)” value worked out at 1.78. U9G G39A A121U U131C: the “polymerase ribozyme fitness (log ratio)” value is 2.2.

For the variant U9G C13G, the “polymerase ribozyme fitness (log ratio)” value amounted to 0.0659. For U9A U55A C56A G63U, the “polymerase ribozyme fitness (log ratio)” value was -5.03. Take U9G G52U C70U C88G C123A: the “polymerase ribozyme fitness (log ratio)” value was -0.768.

For the variant U9G C115G, the “polymerase ribozyme fitness (log ratio)” value turned out to be 1.35. In the case of G10A G39U A90C U106A, the “polymerase ribozyme fitness (log ratio)” value is -2.41. With U9G C99A the figure was -5.82; with G10A G93U C102A, -3.7; with U9C A103C C104A, -2.12.

Take G10U C13U G61U: the “polymerase ribozyme fitness (log ratio)” value is -0.215. Regarding G10A C49U, the “polymerase ribozyme fitness (log ratio)” value was -0.363.

Take G10U C40G: the “polymerase ribozyme fitness (log ratio)” value was -0.556. With G10C C11G A103U, the “polymerase ribozyme fitness (log ratio)” value was -3.76. Regarding U9G C70A G71A G127C, the “polymerase ribozyme fitness (log ratio)” value is -4.46. With U9G G48U G93C A111C, the “polymerase ribozyme fitness (log ratio)” value is -1.91.

With U9C U92A C114A, the “polymerase ribozyme fitness (log ratio)” value is -1.69.

U9G C53U G107C: the “polymerase ribozyme fitness (log ratio)” value is -5.76.

Take U9G C13A G48C C56A C72A U78A: the “polymerase ribozyme fitness (log ratio)” value is -1.24. As for G10U A24G G58C C79U, the “polymerase ribozyme fitness (log ratio)” value is -2.27. Take G10C G113C: the “polymerase ribozyme fitness (log ratio)” value is -2.27. Turning to G10C C13G G61A U106G A118U, the “polymerase ribozyme fitness (log ratio)” value is -2.68. As for G10A A27U G42A C70U C99A, the “polymerase ribozyme fitness (log ratio)” value is -6.56. Consider U9G G58U U112A G120A U130C, for which the “polymerase ribozyme fitness (log ratio)” value is 0.977. As to U9G C12G, the “polymerase ribozyme fitness (log ratio)” value amounted to 0.483. On to U9C G51C U81G U92C, for which the “polymerase ribozyme fitness (log ratio)” value was -5.89. With U9G C56U G61U, the “polymerase ribozyme fitness (log ratio)” value is -4.53.

Take U9G C40A U54G U81G C85A C123G: the “polymerase ribozyme fitness (log ratio)” value was -5.22. With U9C G48U G52C C94U, the “polymerase ribozyme fitness (log ratio)” value was -2.36. For U9G G45A, the “polymerase ribozyme fitness (log ratio)” value was determined as 0.293. With U9C G71U U78G U132A the figure was -0.414. Take U9G U54A C97G U131C: the “polymerase ribozyme fitness (log ratio)” value is -4.7. For U9C G57U, the “polymerase ribozyme fitness (log ratio)” value came to 0.0681. For the variant U9C G17A A18G G69U G113U, the “polymerase ribozyme fitness (log ratio)” value was -4.32. On to G10A A95U G122A, for which the “polymerase ribozyme fitness (log ratio)” value is 0.0165. Take G10U C56A: the “polymerase ribozyme fitness (log ratio)” value is 0.154. Turning to U9G G60A A90C C123U, the “polymerase ribozyme fitness (log ratio)” value was 0.324. Regarding U9C G63A, the “polymerase ribozyme fitness (log ratio)” value came to 0.19. As to G10C C15A G69U U112G, the “polymerase ribozyme fitness (log ratio)” value is -1.87. With U9G C13U G17U U87C the figure was -0.186; with U9G U96G, -0.204. For G10A G63C, the “polymerase ribozyme fitness (log ratio)” value is -0.414. Take G10A C28G U106A G127U G128C: the “polymerase ribozyme fitness (log ratio)” value is -3.76. On to G10A A37U C72A G77C G113A C114U U116G G128A, for which the “polymerase ribozyme fitness (log ratio)” value is -7.17. In the case of U9G C97A, the “polymerase ribozyme fitness (log ratio)” value is -4.53. U9G G113A: the “polymerase ribozyme fitness (log ratio)” value is -0.0202.

On to G10A U129A, for which the “polymerase ribozyme fitness (log ratio)” value is -1.14. The value for U9C C49A C62U C123U was 1.78; that for U9A U14G A41C G42U G60U was -0.928. With U9C C56G, the “polymerase ribozyme fitness (log ratio)” value was 0.559.

With U9C C56A, the “polymerase ribozyme fitness (log ratio)” value was -0.0544. With G10A C56U A74C A75U G93U the figure was -0.9; with U9A G63U, -0.179; with G10C C114U, -2.38. The value for G10A C11U C28A was -4.2. The value for G10A A29C was -1.99; that for G10A C64U U129G was -1.78. Consider U9A G110U C124G, for which the “polymerase ribozyme fitness (log ratio)” value is -0.636. Turning to U9C C31G U92A G93C C114A, the “polymerase ribozyme fitness (log ratio)” value is -5.25. Regarding G10C G57C G117C, the “polymerase ribozyme fitness (log ratio)” value was -4.35. For U9A G36U G120U, the “polymerase ribozyme fitness (log ratio)” value is 1.67. Turning to U9C C12A C86A C102A C104U C124A, the “polymerase ribozyme fitness (log ratio)” value was -0.301. In the case of G10U A37C G113U U129A, the “polymerase ribozyme fitness (log ratio)” value was -5.04. With G10A G107A C123U C124A, the “polymerase ribozyme fitness (log ratio)” value is -4.28. Turning to U9A G35A, the “polymerase ribozyme fitness (log ratio)” value was -3.25. Turning to U9C C15A G44U G60C A91U A121G, the “polymerase ribozyme fitness (log ratio)” value was -1.08. The value for G10A A18U G77A U87A C115A was -1.44; that for U9C C53U A83C was 0.688. On to G10U C12A C49U A118U U131G, for which the “polymerase ribozyme fitness (log ratio)” value was -1.34. As for U9A G71U U87A C89A U112G, the “polymerase ribozyme fitness (log ratio)” value is -5.05. With U9G G10C C94G A121C C124G the figure was 1.48; with G10U A27C U112C, -1.73. G10U C73G: the “polymerase ribozyme fitness (log ratio)” value is -0.976. G10U A83U: the “polymerase ribozyme fitness (log ratio)” value is -0.308. On to U9C G17U U32C C49U C72U A105G, for which the “polymerase ribozyme fitness (log ratio)” value was -5.59.

In the case of G10A G58C A111G, the “polymerase ribozyme fitness (log ratio)” value was 0.287. In the case of G10C C13A C40A G42U G52U C72A, the “polymerase ribozyme fitness (log ratio)” value is -5.16.

For G10C U32C G52A U112A G128A, the “polymerase ribozyme fitness (log ratio)” value was -2.52. In the case of G10A C34A, the “polymerase ribozyme fitness (log ratio)” value is -2.87. G10C C70U A108U U112A U132C: the “polymerase ribozyme fitness (log ratio)” value is -6.08. Regarding U9G C53U G61C C124G U131A, the “polymerase ribozyme fitness (log ratio)” value is 1.49. With U9A G36A the figure was 0.00915. Consider U9G A46U A91C G117A, for which the “polymerase ribozyme fitness (log ratio)” value is -1.93.
